Assay results as given in patent publication US10941182 (Amgen, dated 2021).
Starred links: 1 amine or outer side, 2 acyl side, 3 side chain; linkers in the order of their positions; H or OH if unused. Non-standard residues stand in square brackets, D forms with d. *: point of attachment. Oic = O=C(O)[C@@H]1C[C@@H]2CCCC[C@@H]2N1; Phe(4-Cl) = N[C@@H](Cc1ccc(Cl)cc1)C(=O)O; γGlu = O=C(O)[C@H](CCC(=O)[*:2])N[*:1]; 2Nal = N[C@@H](Cc1ccc2ccccc2c1)C(=O)O; NMehArg = CN[C@@H](CCCCNC(=N)N)C(=O)O; NMeR = CN[C@@H](CCCNC(=N)N)C(=O)O; Tridecanoyl = CCCCCCCCCCCCC(=O)*; hArg = N=C(N)NCCCC[C@H](N)C(=O)O; Cha = N[C@@H](CC1CCCCC1)C(=O)O; Nle = CCCC[C@H](N)C(=O)O; AEEA = NCCOCCOCC(=O)O; Aib = CC(C)(N)C(=O)O; βAla = NCCC(=O)O

T1: human APJ receptor (human, UniProt P35414 1-380)
T1 sequence (looked up): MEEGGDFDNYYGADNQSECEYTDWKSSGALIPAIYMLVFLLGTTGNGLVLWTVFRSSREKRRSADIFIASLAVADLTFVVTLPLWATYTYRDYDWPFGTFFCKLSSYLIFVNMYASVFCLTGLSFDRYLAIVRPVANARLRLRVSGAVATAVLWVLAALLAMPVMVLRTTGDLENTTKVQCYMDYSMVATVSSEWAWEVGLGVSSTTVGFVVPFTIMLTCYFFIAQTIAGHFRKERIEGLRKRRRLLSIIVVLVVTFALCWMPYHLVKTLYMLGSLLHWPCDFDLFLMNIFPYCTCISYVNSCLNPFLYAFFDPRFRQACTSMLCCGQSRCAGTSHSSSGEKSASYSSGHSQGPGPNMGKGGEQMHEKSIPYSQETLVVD

T2: rat APJ receptor (rat, UniProt Q9JHG3 1-377)
T2 sequence (looked up): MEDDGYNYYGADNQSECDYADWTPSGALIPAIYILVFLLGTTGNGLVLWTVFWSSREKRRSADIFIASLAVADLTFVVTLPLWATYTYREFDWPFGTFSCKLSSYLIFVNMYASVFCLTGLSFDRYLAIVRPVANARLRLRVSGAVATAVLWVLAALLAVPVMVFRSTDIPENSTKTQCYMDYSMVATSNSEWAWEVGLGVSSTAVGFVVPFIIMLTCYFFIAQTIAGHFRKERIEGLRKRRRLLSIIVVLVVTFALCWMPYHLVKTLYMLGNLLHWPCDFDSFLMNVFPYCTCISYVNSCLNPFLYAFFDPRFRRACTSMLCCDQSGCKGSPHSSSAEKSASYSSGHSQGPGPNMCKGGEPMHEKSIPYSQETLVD

B1: Apelin polypeptide SEQ ID NO: 425 (peptide)
peptide: Tridecanoyl-[γGlu][AEEA][AEEA]QRP[NMeR]LSHKGP[Nle][βAla][Phe(4-Cl)]-OH
SMILES: CCCCCCCCCCCCC(=O)N[C@@H](CCC(=O)NCCOCCOCC(=O)NCCOCCOCC(=O)N[C@@H](CCC(N)=O)C(=O)N[C@@H](CCCNC(=N)N)C(=O)N1CCC[C@H]1C(=O)N(C)[C@@H](CCCNC(=N)N)C(=O)N[C@@H](CC(C)C)C(=O)N[C@@H](CO)C(=O)N[C@@H](Cc1c[nH]cn1)C(=O)N[C@@H](CCCCN)C(=O)NCC(=O)N1CCC[C@H]1C(=O)N[C@@H](CCCC)C(=O)NCCC(=O)N[C@@H](Cc1ccc(Cl)cc1)C(=O)O)C(=O)O
B2: Apelin polypeptide SEQ ID NO: 429 (peptide)
peptide: XXXQRPRLSHKGPXXF
modifications: {TDA}[AC4Abu][Aeea][Aeea]QRP[NMeArg]LSHKGP[Nle][Pip][4-Cl-F]{COOH}
B3: Apelin polypeptide SEQ ID NO: 470 (peptide)
peptide: Tridecanoyl-[γGlu][AEEA][AEEA]QRP[NMeR]LSHKGP[Nle]P[2Nal]-OH
SMILES: CCCCCCCCCCCCC(=O)N[C@@H](CCC(=O)NCCOCCOCC(=O)NCCOCCOCC(=O)N[C@@H](CCC(N)=O)C(=O)N[C@@H](CCCNC(=N)N)C(=O)N1CCC[C@H]1C(=O)N(C)[C@@H](CCCNC(=N)N)C(=O)N[C@@H](CC(C)C)C(=O)N[C@@H](CO)C(=O)N[C@@H](Cc1c[nH]cn1)C(=O)N[C@@H](CCCCN)C(=O)NCC(=O)N1CCC[C@H]1C(=O)N[C@@H](CCCC)C(=O)N1CCC[C@H]1C(=O)N[C@@H](Cc1ccc2ccccc2c1)C(=O)O)C(=O)O
B4: Apelin polypeptide SEQ ID NO: 384 (peptide)
peptide: XXXQRPRLSHKGPXPF
modifications: {TDA}[AC4Abu][Aeea][Aeea]QrP[NMehArg][BLeu]SHKGP[Nle]P[4-Cl-F]{COOH}
B5: Apelin polypeptide SEQ ID NO: 435 (peptide)
peptide: Tridecanoyl-[γGlu][AEEA][AEEA]Q[dR]P[NMehArg][Cha]SHKGP[Nle]P[Phe(4-Cl)]-OH
SMILES: CCCCCCCCCCCCC(=O)N[C@@H](CCC(=O)NCCOCCOCC(=O)NCCOCCOCC(=O)N[C@@H](CCC(N)=O)C(=O)N[C@H](CCCNC(=N)N)C(=O)N1CCC[C@H]1C(=O)N(C)[C@@H](CCCCNC(=N)N)C(=O)N[C@@H](CC1CCCCC1)C(=O)N[C@@H](CO)C(=O)N[C@@H](Cc1c[nH]cn1)C(=O)N[C@@H](CCCCN)C(=O)NCC(=O)N1CCC[C@H]1C(=O)N[C@@H](CCCC)C(=O)N1CCC[C@H]1C(=O)N[C@@H](Cc1ccc(Cl)cc1)C(=O)O)C(=O)O
B6: Apelin polypeptide SEQ ID NO: 526 (peptide)
peptide: Tridecanoyl-[γGlu][AEEA][AEEA][dQ]RPE[Cha]SHKG[Oic][Nle][Aib][Phe(4-Cl)]-OH
SMILES: CCCCCCCCCCCCC(=O)N[C@@H](CCC(=O)NCCOCCOCC(=O)NCCOCCOCC(=O)N[C@H](CCC(N)=O)C(=O)N[C@@H](CCCNC(=N)N)C(=O)N1CCC[C@H]1C(=O)N[C@@H](CCC(=O)O)C(=O)N[C@@H](CC1CCCCC1)C(=O)N[C@@H](CO)C(=O)N[C@@H](Cc1c[nH]cn1)C(=O)N[C@@H](CCCCN)C(=O)NCC(=O)N1[C@H](C(=O)N[C@@H](CCCC)C(=O)NC(C)(C)C(=O)N[C@@H](Cc2ccc(Cl)cc2)C(=O)O)C[C@@H]2CCCC[C@@H]21)C(=O)O
B7: Apelin polypeptide SEQ ID NO: 527 (peptide)
peptide: Tridecanoyl-[γGlu][AEEA][AEEA][dQ]RP[dE][Cha]SHKG[Oic][Nle][Aib][Phe(4-Cl)]-OH
SMILES: CCCCCCCCCCCCC(=O)N[C@@H](CCC(=O)NCCOCCOCC(=O)NCCOCCOCC(=O)N[C@H](CCC(N)=O)C(=O)N[C@@H](CCCNC(=N)N)C(=O)N1CCC[C@H]1C(=O)N[C@H](CCC(=O)O)C(=O)N[C@@H](CC1CCCCC1)C(=O)N[C@@H](CO)C(=O)N[C@@H](Cc1c[nH]cn1)C(=O)N[C@@H](CCCCN)C(=O)NCC(=O)N1[C@H](C(=O)N[C@@H](CCCC)C(=O)NC(C)(C)C(=O)N[C@@H](Cc2ccc(Cl)cc2)C(=O)O)C[C@@H]2CCCC[C@@H]21)C(=O)O
B8: Apelin polypeptide SEQ ID NO: 477 (peptide)
peptide: Tridecanoyl-[γGlu][AEEA][AEEA]QRPELSHKGP[Nle]P[Phe(4-Cl)]-OH
SMILES: CCCCCCCCCCCCC(=O)N[C@@H](CCC(=O)NCCOCCOCC(=O)NCCOCCOCC(=O)N[C@@H](CCC(N)=O)C(=O)N[C@@H](CCCNC(=N)N)C(=O)N1CCC[C@H]1C(=O)N[C@@H](CCC(=O)O)C(=O)N[C@@H](CC(C)C)C(=O)N[C@@H](CO)C(=O)N[C@@H](Cc1c[nH]cn1)C(=O)N[C@@H](CCCCN)C(=O)NCC(=O)N1CCC[C@H]1C(=O)N[C@@H](CCCC)C(=O)N1CCC[C@H]1C(=O)N[C@@H](Cc1ccc(Cl)cc1)C(=O)O)C(=O)O
B9: Apelin polypeptide SEQ ID NO: 427 (peptide)
peptide: Tridecanoyl-[γGlu][AEEA][AEEA]QRPPLSHKGP[Nle]P[Phe(4-Cl)]-OH
SMILES: CCCCCCCCCCCCC(=O)N[C@@H](CCC(=O)NCCOCCOCC(=O)NCCOCCOCC(=O)N[C@@H](CCC(N)=O)C(=O)N[C@@H](CCCNC(=N)N)C(=O)N1CCC[C@H]1C(=O)N1CCC[C@H]1C(=O)N[C@@H](CC(C)C)C(=O)N[C@@H](CO)C(=O)N[C@@H](Cc1c[nH]cn1)C(=O)N[C@@H](CCCCN)C(=O)NCC(=O)N1CCC[C@H]1C(=O)N[C@@H](CCCC)C(=O)N1CCC[C@H]1C(=O)N[C@@H](Cc1ccc(Cl)cc1)C(=O)O)C(=O)O
B10: Apelin polypeptide SEQ ID NO: 465 (peptide)
peptide: Tridecanoyl-[γGlu][AEEA][AEEA]QRPQLSHKGP[Nle]P[Phe(4-Cl)]-OH
SMILES: CCCCCCCCCCCCC(=O)N[C@@H](CCC(=O)NCCOCCOCC(=O)NCCOCCOCC(=O)N[C@@H](CCC(N)=O)C(=O)N[C@@H](CCCNC(=N)N)C(=O)N1CCC[C@H]1C(=O)N[C@@H](CCC(N)=O)C(=O)N[C@@H](CC(C)C)C(=O)N[C@@H](CO)C(=O)N[C@@H](Cc1c[nH]cn1)C(=O)N[C@@H](CCCCN)C(=O)NCC(=O)N1CCC[C@H]1C(=O)N[C@@H](CCCC)C(=O)N1CCC[C@H]1C(=O)N[C@@H](Cc1ccc(Cl)cc1)C(=O)O)C(=O)O
B11: Apelin polypeptide SEQ ID NO: 430 (peptide)
peptide: Tridecanoyl-[γGlu][AEEA][AEEA]Q[dR]P[dR][Cha]SHKG[Oic][Nle]P[Phe(4-Cl)]-OH
SMILES: CCCCCCCCCCCCC(=O)N[C@@H](CCC(=O)NCCOCCOCC(=O)NCCOCCOCC(=O)N[C@@H](CCC(N)=O)C(=O)N[C@H](CCCNC(=N)N)C(=O)N1CCC[C@H]1C(=O)N[C@H](CCCNC(=N)N)C(=O)N[C@@H](CC1CCCCC1)C(=O)N[C@@H](CO)C(=O)N[C@@H](Cc1c[nH]cn1)C(=O)N[C@@H](CCCCN)C(=O)NCC(=O)N1[C@H](C(=O)N[C@@H](CCCC)C(=O)N2CCC[C@H]2C(=O)N[C@@H](Cc2ccc(Cl)cc2)C(=O)O)C[C@@H]2CCCC[C@@H]21)C(=O)O
B12: Apelin polypeptide SEQ ID NO: 480 (peptide)
peptide: Tridecanoyl-[γGlu][AEEA][AEEA][dR]Q[hArg]P[hArg][Cha]SHKG[Oic][Nle]P[Phe(4-Cl)]-OH
SMILES: CCCCCCCCCCCCC(=O)N[C@@H](CCC(=O)NCCOCCOCC(=O)NCCOCCOCC(=O)N[C@H](CCCNC(=N)N)C(=O)N[C@@H](CCC(N)=O)C(=O)N[C@@H](CCCCNC(=N)N)C(=O)N1CCC[C@H]1C(=O)N[C@@H](CCCCNC(=N)N)C(=O)N[C@@H](CC1CCCCC1)C(=O)N[C@@H](CO)C(=O)N[C@@H](Cc1c[nH]cn1)C(=O)N[C@@H](CCCCN)C(=O)NCC(=O)N1[C@H](C(=O)N[C@@H](CCCC)C(=O)N2CCC[C@H]2C(=O)N[C@@H](Cc2ccc(Cl)cc2)C(=O)O)C[C@@H]2CCCC[C@@H]21)C(=O)O
B13: Apelin polypeptide SEQ ID NO: 479 (peptide)
peptide: Tridecanoyl-[γGlu][AEEA][AEEA][dR]Q[hArg]P[NMeR][Cha]SHKG[Oic][Nle]P[Phe(4-Cl)]-OH
SMILES: CCCCCCCCCCCCC(=O)N[C@@H](CCC(=O)NCCOCCOCC(=O)NCCOCCOCC(=O)N[C@H](CCCNC(=N)N)C(=O)N[C@@H](CCC(N)=O)C(=O)N[C@@H](CCCCNC(=N)N)C(=O)N1CCC[C@H]1C(=O)N(C)[C@@H](CCCNC(=N)N)C(=O)N[C@@H](CC1CCCCC1)C(=O)N[C@@H](CO)C(=O)N[C@@H](Cc1c[nH]cn1)C(=O)N[C@@H](CCCCN)C(=O)NCC(=O)N1[C@H](C(=O)N[C@@H](CCCC)C(=O)N2CCC[C@H]2C(=O)N[C@@H](Cc2ccc(Cl)cc2)C(=O)O)C[C@@H]2CCCC[C@@H]21)C(=O)O

What was measured:
human APJ receptor = biological target: T1, human APJ receptor; assay: cell-based or functional assay
rat APJ receptor = biological target: T2, rat APJ receptor; assay: cell-based or functional assay

Binder | EC50 Human APJ Receptor (GTPγS assay) (human APJ receptor) | EC50 Rat APJ Receptor (GTPγS assay) (rat APJ receptor)
B1 | 0.0937 nM | 0.157 nM
B2 | 0.0664 nM | 0.0935 nM
B3 | 0.0379 nM | 0.149 nM
B4 | 0.957 nM | 4.35 nM
B5 | 0.461 nM | 1.15 nM
B6 | 2.02 nM | 7.2 nM
B7 | 108 nM | 227 nM
B8 | 0.423 nM | 0.691 nM
B9 | 0.17 nM | 0.313 nM
B10 | 0.0692 nM | 0.175 nM
B11 | 1.22 nM | 2.83 nM
B12 | 0.0998 nM | 0.271 nM
B13 | 0.409 nM | 0.805 nM
